Reference: US20200362047A1 (CRESCENDO BIOLOGICS, published 2020)
Numbering of substitutions follows the chain as printed.

T1: human OX40-Fc (R&D Systems cat no. 3388-OX) (human, UniProt P43489 29-216)
T1 construct: Bought protein; not shown: Fc tag
T1 sequence (looked up): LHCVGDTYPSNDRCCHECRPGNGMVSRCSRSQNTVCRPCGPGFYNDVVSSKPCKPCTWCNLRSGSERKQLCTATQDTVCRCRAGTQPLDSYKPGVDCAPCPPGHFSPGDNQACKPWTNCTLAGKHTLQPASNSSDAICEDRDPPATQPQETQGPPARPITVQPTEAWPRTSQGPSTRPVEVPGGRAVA

T2: human GITR-Fc (R&D Systems cat no. 689-GR) (human, UniProt Q9Y5U5 26-161)
T2 construct: Bought protein; also called GITR (Glucocorticoid-induced TNFR-related); not shown: Fc tag
T2 sequence (looked up): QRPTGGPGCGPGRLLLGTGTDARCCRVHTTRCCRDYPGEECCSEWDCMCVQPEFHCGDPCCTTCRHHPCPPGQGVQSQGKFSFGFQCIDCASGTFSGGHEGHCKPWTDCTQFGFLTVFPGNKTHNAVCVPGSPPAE

B1: Humabody VH 1.11 (VHH)
VH: EVQLVESGGGLVQPGGSLRLSCEASGFTFSDYWMNWARQAPGKGLEWVANIKEDGSEKYYVDSVEGRFTISRDNAKNSTYLQMNSLRAEDTAVYYCARGGAGYSMSHYGMDVWGQGTTVTVSSHHHHHH
notes: human single VH domain
B2: Humabody VH 1.78 (VHH)
VH: QVQLVESGGGLVQPGGSLRLSCAATGFTLSNYWMNWVRQAPGKGLEWVANINQDGSERYYVDSVKGRFTISRDNAKNSLYLQMSSLRAEDTAVYFCARGGEGYGVDHYGLDVSGQGTTVTVSSHHHHHH
notes: human single VH domain
B3: Humabody VH 1.1 (VHH)
VH: EVQLVESGGGLVQPGGSLRLSCAASGFTFSSHWMTWFRQAPGKGLEWVAHIKEDGSEKYYEDSVEGRFTVSRDNAKNSVYLQMNSLRAEDTAVYYCARGGDGYSDSHFGVDVWGQGTTVTVSSHHHHHH
notes: human single VH domain; also called single domain antibody 1.1
B4: Humabody VH 1.18 (VHH)
VH: EVQLVESGGGLVQPGGSLRLSCAASGFTFSTHWMNWARQAPGKELEWVANINQDGSEKYYVDSVEGRFTISRDNANNSLYLQMNSLRAEDTAVYYCARGGVGYGDSHFGMDVWGLGTTVTVSSHHHHHH
notes: human single VH domain
B5: Humabody VH 1.52 (VHH)
VH: EVQLVESGGGLVQIGGSLRLSCAASGFTFSKYWMIWVRQAPEKGLEWVANINQDGSEKYYVDSVEGRFTISRDNANNSLFLQMNSLRAEDTAVYYCARGGDDYSISHFGMDVSGQGTRVTVSSHHHHHH
notes: human single VH domain
B6: Humabody VH 2.1 (VHH)
VH: EVQLVESGGGLVKPGGSLRVSCAASGFTFSDYYMSWFRQAPGKGLEWVSYISGSGDIIDYADSVKGRFTISRDNAKNSLYLQMNNLRAEDTAVYHCAREDSRLTGTTDFDNWGQGTLVTVSSHHHHHH
notes: human single VH domain
B7: Humabody VH 2.9 (VHH)
VH: B6 VH with V20L, S35T, V48I, I57T, D62E, N85S, L103I, T104A, Q114P
notes: human single VH domain
B8: Humabody VH 2.14 (VHH)
VH: EVQLVESGGGLVKPGGSLRLSCAASGFTFSDYYMTWFRQAPGKGLEWISYISGSGDTIDYAESVKGRFTISRDNAKNSLYLQMNSLRAEDTAVYYCAREDIRMPGTTDFDHWGQGTLVTVSSHHHHHH
notes: human single VH domain
B9: Humabody VH 2.8 (VHH)
VH: B6 VH with V20L, T28A, Y50H, D56T, I57T, N85S, L103M, T104P
notes: human single VH domain

How the values were obtained:
[1] = target: T1, human OX40-Fc (R&D Systems cat no. …); assay: ELISA, coated OX40-Fc
Method: (§1) Specificity of binding for CD137 over the tumour necrosis factor receptor family members OX40 and GITR (Glucocorticoid-induced TNFR-related) was determined using an ELISA assay. Nunc Maxisorp plates were coated with 1 ug/ml human CD137-Fc recombinant protein (Acro Biosystems 41B-H5258), human GITR-Fc (R&D Systems cat no. 689-GR) human OX40-Fc (R&D Systems cat no. 3388-OX) in sodium carbonate buffer overnight at 4° C. then washed twice with PBS. Non-specific protein interactions were blocked by incubation with 1% (w/v) skimmed milk powder (Marvel®) in PBS/0.1% Tween-20 for 1 hour at room temperature. Plates were washed twice with PBS then VH or antibody control (1 ug/ml) added for 1 hour at room temperature. Following three washes with PBS/0.1% Tween-20 a 1:1000 dilution of anti His-HRP (VH detection) or anti mouse-HRP (positive control mouse monoclonal antibody detection) was added in 1% Marvel/PBS/0.1% Tween-20. The detection antibodies were allowed to bind for 1 hour at room temperature then the plates were washed twice in PBS/0.1% Tween-20 and once in PBS. The ELISA was developed using TMB substrate and the reaction was stopped by the addition of 50 ul 0.5M H₂SO₄ solution. The absorbance at 450 nm was measured using the BMG Pherastar.

[2] = target: T2, human GITR-Fc (R&D Systems cat no. …); assay: ELISA, coated GITR-Fc
Method: as §1

[3] = target: T3, human CD137 expressed on the surface of CHO cells (human, UniProt Q07011 24-255); assay: FMAT, CHO human CD137 cells
T3 construct: Also used for the Jurkat reporter cells that express human CD137 (functional rows); also called CHO human CD137 cells; CHO huCD137
T3 sequence (Q07011 24-255 limits assumed): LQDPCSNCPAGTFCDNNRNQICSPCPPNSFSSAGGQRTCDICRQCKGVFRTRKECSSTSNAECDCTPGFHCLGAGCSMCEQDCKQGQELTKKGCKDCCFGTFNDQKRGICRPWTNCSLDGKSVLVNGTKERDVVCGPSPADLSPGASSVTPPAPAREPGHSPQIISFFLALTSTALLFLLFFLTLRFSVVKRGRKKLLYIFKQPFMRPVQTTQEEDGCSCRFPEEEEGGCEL
Method: Binding of His-tagged molecules to CHO human CD137, CHO parent, CHO human PSMA, DU145 PSMA and DU145 parent cells was assessed using Fluorescence Microvolume Assay Technology (FMAT). All reagents were prepared in FMAT assay buffer (pH 7.4) containing PBS, 0.1% Bovine Serum Albumin, 0.05% Sodium Azide. Serially diluted samples were transferred into 384 well black clear-bottomed assay plates (Costar cat. no. 3655) and incubated for a minimum of 2 hours at room temperature with 1.5 nM Anti-His (Millipore cat. no. 05-949), […] Goat Anti-Mouse Alexa Fluor-488 (Jackson ImmunoResearch cat. no. 115-545-071) and 2000 cells/well pre-stained with DRAQ5 (Thermo Scientific cat. no. 62251). Fluorescence emission was then measured on the TTP Mirrorball plate reader in the FL2 (502 nm-537 nm) and FL5 (677-800 nm) channels following excitation at 488 nm and 640 nm. Data was gated on FL5 perimeter and peak intensity and the FL2 median mean fluorescence intensity of the gated data used for determination of VH binding. Monovalent CD137 specific Humabody® VH, bispecific and trispecific molecules with a CD137 binding arm bound to CHO CD137 expressing cells. Monovalent PSMA specific Humabody® VH, bispecific and trispecific molecules with a PSMA binding arm bound to PSMA expressing cells.

[4] = target: T4, CD137 on pre-stimulated human CD8+ T cells (human, UniProt Q07011 24-255); assay: flow cytometry, PMA/ionomycin-stimulated human CD8+ T cells, mean of 2-3 donors
T4 construct: also called pre-stimulated CD8+ cells; primary T cells
T4 sequence (Q07011 24-255 limits assumed): as above
Method: Binding to primary T cells was measured using flow cytometry. Peripheral blood mononuclear cells (PBMCs) were isolated from human blood by density gradient centrifugation then CD8+ T cells purified using a negative selection isolation kit according to the manufacturer's protocol (Miltenyi Biotech cat no 130-042-401). T-cells were stimulated PMA/Ionomycin for 48-72 hours in RPMI media supplemented with 10% FBS, 2 mM Glutamine, 1× Pen/Strep. Cells were transferred into 96 well plates, blocked for 10 mins with staining buffer (PBS/1% BSA/0.05% Sodium Azide) then incubated with serially diluted VH in staining buffer (PBS/1% BSA) for 30 mins-1 hour at 4° C. Cells were washed by centrifugation then VH binding detected using Anti His antibody (Millipore 05-949) and Goat Anti Mouse Alexa Fluor-488 (Jackson ImmunoResearch cat no. 115-545-071). A Live Dead near IR stain (Molecular Probes cat no. L10119) was used for discrimination of live cells. After further washing cells were fixed and fluorescence measured by flow cytometry.

[5] = target: T3, human CD137 expressed on the surface of …; assay: FMAT ligand inhibition, CD137 Ligand on CHO human CD137 cells
How it was run: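 Read-out was FMAT fluorescence (FL2 median intensity), normalised to total binding controls after subtracting non-specific binding set with excess non-Fc-tagged competitor. Inhibition by purified Humabody VH of human CD137 ligand binding to CHO human CD137 cells was reported as % control.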

Binder | binding result [1] | binding result [2] | EC50 [3] [pM] | EC50 [4] [pM] | IC50 [5] [pM]
B1 | no binding (tested: 1 ug/ml) | no binding (tested: 1 ug/ml) | 270 | 890 | 1600
B2 | no binding (tested: 1 ug/ml) | no binding (tested: 1 ug/ml) | 320 | 610 | 1500
B3 | no binding (tested: 1 ug/ml) | no binding (tested: 1 ug/ml) | 220 | 220 | 1100
B4 | no binding (tested: 1 ug/ml) | no binding (tested: 1 ug/ml) | 310 | 1900 | 1200
B5 | no binding (tested: 1 ug/ml) | no binding (tested: 1 ug/ml) | 370 | 880 | 1200
B6 | no binding (tested: 1 ug/ml) | no binding (tested: 1 ug/ml) | 650 | 2400 | 5700
B7 | no binding (tested: 1 ug/ml) | no binding (tested: 1 ug/ml) | 180 | 600 | 2000
B8 | no binding (tested: 1 ug/ml) | no binding (tested: 1 ug/ml) | 310 | 610 | 2000
B9 | no binding (tested: 1 ug/ml) | no binding (tested: 1 ug/ml) | 190 | 6500 | 19000
